Target: T1, CD276抗原 (UniProt Q5ZPR3 29-466, limits assumed)
T1 construct: also called CD276靶抗原; CD276目的蛋白
T1 sequence (looked up): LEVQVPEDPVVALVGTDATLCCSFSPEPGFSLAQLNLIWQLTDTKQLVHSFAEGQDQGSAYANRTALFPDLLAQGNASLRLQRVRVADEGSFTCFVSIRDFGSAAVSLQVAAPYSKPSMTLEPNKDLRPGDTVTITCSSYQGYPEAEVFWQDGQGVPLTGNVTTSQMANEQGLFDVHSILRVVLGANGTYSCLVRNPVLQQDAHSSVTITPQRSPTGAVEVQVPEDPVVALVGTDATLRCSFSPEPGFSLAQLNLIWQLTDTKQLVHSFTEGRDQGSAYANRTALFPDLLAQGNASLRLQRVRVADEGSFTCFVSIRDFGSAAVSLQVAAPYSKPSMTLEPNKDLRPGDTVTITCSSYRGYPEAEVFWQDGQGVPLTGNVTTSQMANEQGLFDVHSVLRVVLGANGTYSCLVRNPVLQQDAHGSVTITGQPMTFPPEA
Experiment: phage ELISA on coated antigen, TMB, OD450nm

B1: CD276-03 monoclonal phage (clone 03 scFv displayed on phage) (scFv)
scFv: QVQLVQSGGGVVQPGRSLRLSCSASGFTFNSHGMHWVRQAPGKGLEWVGVIWYDGSNAYYADSAKGRFTISRDNSKNSVYLQLNSLGVEDTALYYCAKSDRPHPMGFYYYMDVWGQGTTVTVSSGGGGSGGGGSQSALTQPASVSGSPGQSITISCTGTSSDVGGYNYVSWYQQHPGKAPKLMIYDVSNRPSGVSNRFSGSKSGNTASLTISGLQAEDEADYYCSSYTSSSTLVFGGGTK
notes: The phage coat protein fusion partner is not described; also called 克隆03
- binding result: no binding

From CN113461818A (UNIV XUZHOU MEDICAL, dated 2021)
